Measured values reported in US20250145690A1 (US Dept. of Health and Human Services, published 2025).

Experiments:
Test in all cases: bead flow cytometry, AUC minus CD4
[1] = molecular target: SARS-CoV-2 spike N-terminal domain (NTD), recombinant (SARS-CoV-2, UniProt P0DTC2 14-305)
[2] = molecular target: T1, HCoV-NL63 spike protein (Sino Biological 40604-V08B) (HCoV-NL63, UniProt Q6Q1S2 19-1296)
T1 sequence: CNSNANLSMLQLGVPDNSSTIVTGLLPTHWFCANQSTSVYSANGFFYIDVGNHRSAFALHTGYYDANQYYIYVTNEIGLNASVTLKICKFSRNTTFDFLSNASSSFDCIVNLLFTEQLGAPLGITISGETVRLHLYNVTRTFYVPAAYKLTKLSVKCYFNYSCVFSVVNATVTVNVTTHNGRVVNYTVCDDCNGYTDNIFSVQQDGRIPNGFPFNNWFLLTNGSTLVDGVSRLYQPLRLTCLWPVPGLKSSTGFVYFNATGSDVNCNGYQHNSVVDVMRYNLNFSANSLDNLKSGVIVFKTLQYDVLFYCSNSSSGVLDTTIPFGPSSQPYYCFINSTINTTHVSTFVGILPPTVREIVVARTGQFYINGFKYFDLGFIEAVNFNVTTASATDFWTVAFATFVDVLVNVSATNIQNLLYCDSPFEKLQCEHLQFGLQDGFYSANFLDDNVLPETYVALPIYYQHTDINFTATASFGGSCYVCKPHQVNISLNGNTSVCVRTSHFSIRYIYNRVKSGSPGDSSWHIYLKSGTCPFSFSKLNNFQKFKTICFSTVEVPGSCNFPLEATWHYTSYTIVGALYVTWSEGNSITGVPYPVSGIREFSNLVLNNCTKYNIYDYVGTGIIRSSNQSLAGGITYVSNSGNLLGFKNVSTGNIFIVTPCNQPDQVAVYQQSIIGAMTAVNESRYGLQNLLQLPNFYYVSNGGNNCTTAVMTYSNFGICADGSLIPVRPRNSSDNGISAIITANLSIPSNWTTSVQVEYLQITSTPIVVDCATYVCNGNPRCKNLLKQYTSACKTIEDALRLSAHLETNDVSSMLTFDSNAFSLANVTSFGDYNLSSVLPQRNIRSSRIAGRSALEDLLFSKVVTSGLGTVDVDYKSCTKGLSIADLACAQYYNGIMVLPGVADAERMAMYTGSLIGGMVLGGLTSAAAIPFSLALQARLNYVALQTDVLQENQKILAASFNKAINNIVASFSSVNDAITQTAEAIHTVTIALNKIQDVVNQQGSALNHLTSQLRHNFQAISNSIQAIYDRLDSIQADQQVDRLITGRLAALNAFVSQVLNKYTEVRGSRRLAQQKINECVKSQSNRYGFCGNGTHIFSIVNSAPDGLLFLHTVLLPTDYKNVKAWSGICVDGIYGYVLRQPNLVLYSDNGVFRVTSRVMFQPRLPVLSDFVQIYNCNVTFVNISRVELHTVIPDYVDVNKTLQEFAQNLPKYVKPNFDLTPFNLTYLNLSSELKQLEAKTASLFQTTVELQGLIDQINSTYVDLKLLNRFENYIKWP

[3] = molecular target: T2, HCoV-HKU1 spike protein (Sino Biological 40606-V08B) (HCoV-HKU1, UniProt Q0ZME7 13-1295)
T2 sequence: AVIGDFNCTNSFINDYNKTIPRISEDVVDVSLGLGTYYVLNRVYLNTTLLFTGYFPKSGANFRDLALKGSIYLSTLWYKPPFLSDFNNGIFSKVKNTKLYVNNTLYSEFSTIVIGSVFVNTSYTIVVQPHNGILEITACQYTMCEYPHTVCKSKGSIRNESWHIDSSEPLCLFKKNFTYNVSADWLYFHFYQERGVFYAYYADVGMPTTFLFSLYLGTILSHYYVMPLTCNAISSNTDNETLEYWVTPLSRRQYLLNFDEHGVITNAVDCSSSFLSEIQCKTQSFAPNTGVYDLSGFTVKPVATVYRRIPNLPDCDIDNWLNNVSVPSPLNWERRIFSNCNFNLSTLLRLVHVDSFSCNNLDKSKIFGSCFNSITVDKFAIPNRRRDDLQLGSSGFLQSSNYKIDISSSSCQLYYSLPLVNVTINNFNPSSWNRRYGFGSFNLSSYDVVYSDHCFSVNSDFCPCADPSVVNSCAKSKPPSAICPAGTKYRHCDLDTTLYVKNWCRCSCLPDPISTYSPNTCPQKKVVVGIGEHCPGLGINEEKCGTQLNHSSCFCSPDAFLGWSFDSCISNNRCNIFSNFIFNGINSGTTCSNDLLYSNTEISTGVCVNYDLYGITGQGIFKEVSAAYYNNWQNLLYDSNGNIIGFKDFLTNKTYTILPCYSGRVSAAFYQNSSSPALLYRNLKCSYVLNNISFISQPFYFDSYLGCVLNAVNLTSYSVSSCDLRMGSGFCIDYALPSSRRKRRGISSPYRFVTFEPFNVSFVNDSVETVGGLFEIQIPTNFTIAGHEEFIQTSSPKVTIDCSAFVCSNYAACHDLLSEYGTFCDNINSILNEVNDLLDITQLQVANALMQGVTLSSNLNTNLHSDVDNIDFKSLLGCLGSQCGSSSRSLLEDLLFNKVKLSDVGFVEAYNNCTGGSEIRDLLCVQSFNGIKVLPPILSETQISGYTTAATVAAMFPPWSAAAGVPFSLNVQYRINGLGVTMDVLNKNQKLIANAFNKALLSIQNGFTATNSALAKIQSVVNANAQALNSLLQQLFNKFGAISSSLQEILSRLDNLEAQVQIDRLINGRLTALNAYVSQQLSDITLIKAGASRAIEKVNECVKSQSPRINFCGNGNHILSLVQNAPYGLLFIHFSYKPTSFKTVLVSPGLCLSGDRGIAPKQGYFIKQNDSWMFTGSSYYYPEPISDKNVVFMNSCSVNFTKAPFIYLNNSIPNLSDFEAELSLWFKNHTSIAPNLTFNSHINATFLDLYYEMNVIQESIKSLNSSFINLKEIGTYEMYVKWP

[4] = molecular target: T3, HCoV-229E spike protein (Sino Biological 40605-V08B) (HCoV-229E, UniProt P15423 16-1115)
T3 sequence: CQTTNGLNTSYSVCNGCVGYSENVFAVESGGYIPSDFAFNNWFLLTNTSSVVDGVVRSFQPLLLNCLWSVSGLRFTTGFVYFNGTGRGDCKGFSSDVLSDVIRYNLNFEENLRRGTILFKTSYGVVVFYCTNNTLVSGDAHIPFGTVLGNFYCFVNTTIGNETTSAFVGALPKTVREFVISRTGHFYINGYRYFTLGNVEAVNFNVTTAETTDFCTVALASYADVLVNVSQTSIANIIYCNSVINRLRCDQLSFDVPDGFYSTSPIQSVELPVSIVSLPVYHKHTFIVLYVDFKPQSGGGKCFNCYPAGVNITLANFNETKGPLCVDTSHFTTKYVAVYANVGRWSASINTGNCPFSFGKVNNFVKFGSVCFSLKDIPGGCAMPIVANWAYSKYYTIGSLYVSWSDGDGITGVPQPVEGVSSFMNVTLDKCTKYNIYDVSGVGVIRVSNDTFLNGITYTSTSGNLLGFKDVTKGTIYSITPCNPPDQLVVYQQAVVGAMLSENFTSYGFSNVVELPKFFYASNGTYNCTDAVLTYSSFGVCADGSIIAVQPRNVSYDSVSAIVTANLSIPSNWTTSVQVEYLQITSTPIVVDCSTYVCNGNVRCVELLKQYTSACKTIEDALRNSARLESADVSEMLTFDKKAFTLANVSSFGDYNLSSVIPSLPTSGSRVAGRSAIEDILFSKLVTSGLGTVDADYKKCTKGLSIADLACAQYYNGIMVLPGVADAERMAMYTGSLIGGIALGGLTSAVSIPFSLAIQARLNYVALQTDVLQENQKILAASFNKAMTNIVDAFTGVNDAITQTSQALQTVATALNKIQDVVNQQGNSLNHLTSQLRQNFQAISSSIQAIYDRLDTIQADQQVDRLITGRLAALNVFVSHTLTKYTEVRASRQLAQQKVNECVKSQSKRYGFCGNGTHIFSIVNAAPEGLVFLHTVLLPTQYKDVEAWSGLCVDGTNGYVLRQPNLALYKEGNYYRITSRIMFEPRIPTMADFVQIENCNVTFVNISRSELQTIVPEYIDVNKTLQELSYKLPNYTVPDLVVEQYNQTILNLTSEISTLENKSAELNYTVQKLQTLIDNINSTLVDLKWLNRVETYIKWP

Measured: binding result

B1: COV44-26 (antibody, V domains shown)
VH: QVQLVQSGAEVKKPGASVKVSCKASGYTFSNFYMNWVRQAPGQGLEWVGLISPSAGYTAYAQMFQGRVTMTRDTSTSTVYMELSSLRSEDTAVYYCARVAVAGPNDYWGQGTLVTVSS
VL: EIVLTQSPGTLSLSPGERATLSCRASQSISSSYLAWYQQKPGQAPRLVIFAASTRATGIPDRFSGSGSGTDFTLTITRLEPEDFALYYCQHYRSSPPLWTFGQGTKVEIR
no binding (tested: 200 µg/mL): [1] | [2] | [3] | [4]
